Measurements: the supplement of paper PMC5998384

Tests used:
[1] = test system: HeLa Kyoto; test: thermal stability score vs G1/S (z-score of summed log2 fold changes over temperatures); higher = more thermally stable than in G1/S
[2] = test system: HeLa Kyoto; test: solubility in G1/S (NP-40 vs SDS abundance) (log2 ratio); higher = more soluble; conditions: cell cycle stage: G1/S
[3] = test system: HeLa Kyoto; test: melting temperature (median over replicates), in situ; higher = more thermally stable
[4] = test system: HeLa Kyoto; test: solubility change mitosis vs G1/S (difference of NP-40 vs SDS log2 ratios) (log2 ratio difference); higher = more soluble in mitosis
[5] = cell cycle stage: early G1 (4.5 h after nocodazole release)
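For melting temperature (median over replicates), in situ in this document: HeLa Kyoto cells synchronized by double thymidine or nocodazole block, proteins quantified by TMT10plex mass spectrometry, three independent biological replicates.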
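For solubility change mitosis vs G1/S (difference of NP-40 vs SDS log2 ratios) in this document: synchronized HeLa Kyoto cells (double thymidine block for G1/S, nocodazole release for mitosis), protein amounts in NP-40 versus SDS lysates quantified by mass spectrometry, three biological replicates.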
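For solubility in G1/S (NP-40 vs SDS abundance) in this document: HeLa Kyoto cells arrested at G1/S by double thymidine block, proteins quantified by TMT10plex mass spectrometry in mild NP-40 versus SDS extracts, three biological replicates.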
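For thermal stability score vs G1/S (z-score of summed log2 fold changes over temperatures) in this document: synchronized HeLa Kyoto cells, proteins quantified by TMT10plex mass spectrometry, three biological replicates, mitosis taken 0.5 h after nocodazole release, G1/S directly after double thymidine block.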

Sequence	thermal stability score [1, 5]	thermal stability score ([1]; cell cycle stage: mitosis)	solubility in G1/S (log2) [2]	melting temperature ([3]; cell cycle stage: G1/S) [°C]	melting temperature ([3]; cell cycle stage: mitosis) [°C]	solubility change mitosis (log2) [4]
MASVAVDPQPSVVTRVVNLPLVSSTYDLMSSAYLSTKDQYPYLKSVCEMAENGVKTITSVAMTSALPIIQKLEPQIAVANTYACKGLDRIEERLPILNQPSTQIVANAKGAVTGAKDAVTTTVTGAKDSVASTITGVMDKTKGAVTGSVEKTKSVVSGSINTVLGSRMMQLVSSGVENALTKSELLVEQYLPLTEEELEKEAKKVEGFDLVQKPSYYVRLGSLSTKLHSRAYQQALSRVKEAKQKSQQTISQLHSTVHLIEFARKNVYSANQKIQDAQDKLYLSWVEWKRSIGYDDTDESHCAEHIESRTLAIARNLTQQLQTTCHTLLSNIQGVPQNIQDQAKHMGVMAGDIYSVFRNAASFKEVSDSLLTSSKGQLQKMKESLDDVMDYLVNNTPLNWLVGPFYPQLTESQNAQDQGAEMDKSSQETQRSEHKTH [PLIN2]	0.285	0.347	0.307	53.2	53.3	0.0233
MASVVLPSGSQCAAAAAAAAPPGLRLRLLLLLFSAAALIPTGDGQNLFTKDVTVIEGEVATISCQVNKSDDSVIQLLNPNRQTIYFRDFRPLKDSRFQLLNFSSSELKVSLTNVSISDEGRYFCQLYTDPPQESYTTITVLVPPRNLMIDIQKDTAVEGEEIEVNCTAMASKPATTIRWFKGNTELKGKSEVEEWSDMYTVTSQLMLKVHKEDDGVPVICQVEHPAVTGNLQTQRYLEVQYKPQVHIQMTYPLQGLTREGDALELTCEAIGKPQPVMVTWVRVDDEMPQHAVLSGPNLFINNLNKTDNGTYRCEASNIVGKAHSDYMLYVYDPPTTIPPPTTTTTTTTTTTTTILTIITDSRAGEEGSIRAVDHAVIGGVVAVVVFAMLCLLIILGRYFARHKGTYFTHEAKGADDAADADTAIINAEGGQNNSEEKKEYFI [CADM1]	0.625	0.622	-0.145	61.3	58.9	-0.0334
MASVWQRLGFYASLLKRQLNGGPDVIKWERRVIPGCTRSIYSATGKWTKEYTLQTRKDVEKWWHQRIKEQASKISEADKSKPKFYVLSMFPYPSGKLHMGHVRVYTISDTIARFQKMRGMQVINPMGWDAFGLPAENAAVERNLHPQSWTQSNIKHMRKQLDRLGLCFSWDREITTCLPDYYKWTQYLFIKLYEAGLAYQKEALVNWDPVDQTVLANEQVDEHGCSWRSGAKVEQKYLRQWFIKTTAYAKAMQDALADLPEWYGIKGMQAHWIGDCVGCHLDFTLKVHGQATGEKLTAYTATPEAIYGTSHVAISPSHRLLHGHSSLKEALRMALVPGKDCLTPVMAVNMLTQQEVPVVILAKADLEGSLDSKIGIPSTSSEDTILAQTLGLAYSEVIETLPDGTERLSSSAEFTGMTRQDAFLALTQKARGKRVGGDVTSDKLKDWLISRQRYWGTPIPIVHCPVCGPTPVPLEDLPVTLPNIASFTGKGGPPLAMASEWVNCSCPRCKGAAKRETDTMDTFVDSAWYYFRYTDPHNPHSPFNTAVADYWMPVDLYIGGKEHAVMHLFYARFFSHFCHDQKMVKHREPFHKLLAQGLIKGQTFRLPSGQYLQREEVDLTGSVPVHAKTKEKLEVTWEKMSKSKHNGVDPEEVVEQYGIDTIRLYILFAAPPEKDILWDVKTDALPGVLRWQQRLWTLTTRFIEARASGKSPQPQLLSNKEKAEARKLWEYKNSVISQVTTHFTEDFSLNSAISQLMGLSNALSQASQSVILHSPEFEDALCALMVMAAPLAPHVTSEIWAGLALVPRKLCAHYTWDASVLLQAWPAVDPEFLQQPEVVQMAVLINNKACGKIPVPQQVARDQDKVHEFVLQSELGVRLLQGRSIKKSFLSPRTALINFLVQD [LARS2]	0.0823	0.851	-0.045	49.7	49.9	-0.0972
MASYPYRQGCPGAAGQAPGAPPGSYYPGPPNSGGQYGSGLPPGGGYGGPAPGGPYGPPAGGGPYGHPNPGMFPSGTPGGPYGGAAPGGPYGQPPPSSYGAQQPGLYGQGGAPPNVDPEAYSWFQSVDSDHSGYISMKELKQALVNCNWSSFNDETCLMMINMFDKTKSGRIDVYGFSALWKFIQQWKNLFQQYDRDRSGSISYTELQQALSQMGYNLSPQFTQLLVSRYCPRSANPAMQLDRFIQVCTQLQVLTEAFREKDTAVQGNIRLSFEDFVTMTASRML [PEF1]	-1.46	-1.2	-0.126	53.5	53.2	0.345
MATAAYEQLKLHITPEKFYVEACDDGADDVLTIDRVSTEVTLAVKKDVPPSAVTRPIFGILGTIHLVAGNYLIVITKKIKVGEFFSHVVWKATDFDVLSYKKTMLHLTDIQLQDNKTFLAMLNHVLNVDGFYFSTTYDLTHTLQRLSNTSPEFQEMSLLERADQRFVWNGHLLRELSAQPEVHRFALPVLHGFITMHSCSINGKYFDWILISRRSCFRAGVRYYVRGIDSEGHAANFVETEQIVHYNGSKASFVQTRGSIPVFWSQRPNLKYKPLPQISKVANHMDGFQRHFDSQVIIYGKQVIINLINQKGSEKPLEQTFATMVSSLGSGMMRYIAFDFHKECKNMRWDRLSILLDQVAEMQDELSYFLVDSAGQVVANQEGVFRSNCMDCLDRTNVIQSLLARRSLQAQLQRLGVLHVGQKLEEQDEFEKIYKNAWADNANACAKQYAGTGALKTDFTRTGKRTHLGLIMDGWNSMIRYYKNNFSDGFRQDSIDLFLGNYSVDELESHSPLSVPRDWKFLALPIIMVVAFSMCIICLLMAGDTWTETLAYVLFWGVASIGTFFIILYNGKDFVDAPRLVQKEKID [SACM1L]	1.77	2.34	-0.172	50.7	50.7	-0.111
